Residue numbers refer to the chain shown, from its start. Numbers in names are those of the source.
T1: human FcγRIIa type R (human, UniProt P12318 36-217)
T1 construct: also called FcgRIIaR; FcγRIIa(R)
T1 chain: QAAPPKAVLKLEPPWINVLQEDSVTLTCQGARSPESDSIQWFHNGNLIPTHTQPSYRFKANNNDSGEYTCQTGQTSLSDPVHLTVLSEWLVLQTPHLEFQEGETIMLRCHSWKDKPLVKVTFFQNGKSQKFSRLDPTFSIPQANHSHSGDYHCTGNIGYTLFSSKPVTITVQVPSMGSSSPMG

T2: human FcγRIIa type H (human, UniProt P12318 36-217)
T2 construct: also called FcgRIIaH; FcγRIIa(H)
T2 sequence: T1 chain with R133H

T3: human FcγRIIb (human, UniProt P31994 43-217, limits assumed)
T3 construct: also called FcgRIIb; FcγIIB
T3 sequence: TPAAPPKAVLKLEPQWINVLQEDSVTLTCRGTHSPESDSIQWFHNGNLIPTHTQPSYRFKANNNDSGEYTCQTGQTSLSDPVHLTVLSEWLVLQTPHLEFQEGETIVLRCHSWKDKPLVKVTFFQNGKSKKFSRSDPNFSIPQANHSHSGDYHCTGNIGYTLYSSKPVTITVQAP

B1: IL6R-BP082/IL6R-L (antibody, human IgG1, name in EU numbering)
heavy: QVQLQESGPGLVKPSETLSLTCAVSGHSISHDHAWSWVRQPPGEGLEWIGFISYSGITNYNPSLQGRVTISRDNSKNTLYLQMNSLRAEDTAVYYCARSLARTTAMDYWGEGTLVTVSSASTKGPSVFPLAPSSKSTSGGTAALGCLVKDYFPEPVTVSWNSGALTSGVHTFPAVLQSSGLYSLSSVVTVPSSSLGTQTYICNVNHKPSNTKVDKKVEPKSCDKTHTCPPCPAPDLLGGDSVFLFPPKPKDTLMISRTPEVTCVVVDVSHEDPEVKFNWYVDGVEVHNAKTKPREEQYNSTYRVVSVLTVLHQDWLNGKEYKCKVSNKALPKPIEKTISKAKGQPREPQVYTLPPSRDELTKNQVSLTCLVKGFYPSDIAVEWESNGQPENNYKTTPPVLDSDGSFFLYSKLTVDKSRWQQGNVFSCSVMHEALHNHYTQESLSLSP
light: DIQMTQSPSSLSASVGDRVTITCRASQDISSYLNWYQQKPGKAPKLLIYYTSRLHSGVPSRFSGSGSGTDFTFTISSLQPEDIATYYCQQGNTLPYTFGQGTKVEIK
notes: copies: 2 + 2
B2: IL6R-BP087/IL6R-L (antibody, human IgG1, name in EU numbering)
heavy: B1 heavy with D235E, L236Y
light: B1 light
notes: copies: 2 + 2
B3: IL6R-BP085/IL6R-L (antibody, human IgG1, name in EU numbering)
heavy: B1 heavy with D235E, G239D
light: B1 light
notes: copies: 2 + 2
B4: IL6R-BP152/IL6R-L (antibody, human IgG1, name in EU numbering)
heavy: B1 heavy with L236Y, G239D, Y298D, K328A, K332R
light: B1 light
notes: the list runs over r38 and r39; copies: 2 + 2
B5: IL6R-2B261/IL6R-L (antibody, human IgG1, name in EU numbering)
heavy: B1 heavy with Y298D, K332A
light: B1 light
notes: copies: 2 + 2
B6: IL6R-BP181/IL6R-L (antibody, human IgG1, name in EU numbering)
heavy: B1 heavy with P273G, K328A
light: B1 light
notes: the list runs over r48 and r49; copies: 2 + 2
B7: IL6R-BP084/IL6R-L (antibody, human IgG1, name in EU numbering)
heavy: B1 heavy with D235E, V325M
light: B1 light
notes: copies: 2 + 2
B8: IL6R-B3/IL6R-L (antibody, human IgG1)
heavy: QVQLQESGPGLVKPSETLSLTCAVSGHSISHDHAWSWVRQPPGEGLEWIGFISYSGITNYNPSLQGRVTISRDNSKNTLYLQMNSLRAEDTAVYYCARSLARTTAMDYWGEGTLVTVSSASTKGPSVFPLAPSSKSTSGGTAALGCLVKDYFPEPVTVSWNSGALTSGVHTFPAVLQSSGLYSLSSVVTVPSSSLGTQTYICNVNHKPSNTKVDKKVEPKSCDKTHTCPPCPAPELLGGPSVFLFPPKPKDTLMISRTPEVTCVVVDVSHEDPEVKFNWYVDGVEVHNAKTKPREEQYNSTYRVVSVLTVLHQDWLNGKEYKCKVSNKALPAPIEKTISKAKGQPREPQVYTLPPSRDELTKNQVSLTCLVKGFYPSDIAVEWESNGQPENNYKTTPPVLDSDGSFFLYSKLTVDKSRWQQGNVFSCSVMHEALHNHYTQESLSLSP
light: B1 light
notes: IL6R-G1d with K439E (EU numbering); parent polypeptide of the variants; copies: 2 + 2
B9: IL6R-BP178/IL6R-L (antibody, human IgG1, name in EU numbering)
heavy: B1 heavy with G239D, P273G
light: B1 light
notes: the list runs over r43 and r44; copies: 2 + 2
B10: IL6R-BP131/IL6R-L (antibody, human IgG1, name in EU numbering)
heavy: B1 heavy with G239D
light: B1 light
notes: copies: 2 + 2
B11: IL6R-BP088/IL6R-L (antibody, human IgG1, name in EU numbering)
heavy: B1 heavy with D235E, G239D, K328A
light: B1 light
notes: copies: 2 + 2
B12: IL6R-BP086/IL6R-L (antibody, human IgG1, name in EU numbering)
heavy: B1 heavy with D235E, K328A
light: B1 light
notes: copies: 2 + 2
B13: IL6R-BP083/IL6R-L (antibody, human IgG1, name in EU numbering)
heavy: B1 heavy with D235E, Y298D
light: B1 light
notes: copies: 2 + 2
B14: IL6R-BP151/IL6R-L (antibody, human IgG1, name in EU numbering)
heavy: B1 heavy with L236Y, G239D, K328A, K332R
light: B1 light
notes: the list runs over r36 and r37; copies: 2 + 2
B15: IL6R-BP176/IL6R-L (antibody, human IgG1, name in EU numbering)
heavy: B1 heavy with K328D
light: B1 light
notes: copies: 2 + 2
B16: IL6R-BF648/IL6R-L (antibody, human IgG1, name in EU numbering)
heavy: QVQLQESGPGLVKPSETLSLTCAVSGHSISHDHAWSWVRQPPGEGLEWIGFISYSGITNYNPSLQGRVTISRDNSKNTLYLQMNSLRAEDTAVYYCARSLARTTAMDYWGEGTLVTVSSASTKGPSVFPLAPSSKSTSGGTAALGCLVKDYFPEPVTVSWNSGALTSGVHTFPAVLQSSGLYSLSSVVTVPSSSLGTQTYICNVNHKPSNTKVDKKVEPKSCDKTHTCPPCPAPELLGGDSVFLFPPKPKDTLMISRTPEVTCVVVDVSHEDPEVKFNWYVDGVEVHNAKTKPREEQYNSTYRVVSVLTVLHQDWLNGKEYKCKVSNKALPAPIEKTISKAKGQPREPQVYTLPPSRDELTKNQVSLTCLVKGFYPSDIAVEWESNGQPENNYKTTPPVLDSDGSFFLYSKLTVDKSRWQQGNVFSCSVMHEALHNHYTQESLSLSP
light: B1 light
notes: copies: 2 + 2
B17: IL6R-2B253/IL6R-L (antibody, human IgG1, name in EU numbering)
heavy: B1 heavy with V325M, K332A
light: B1 light
notes: copies: 2 + 2
B18: IL6R-BP132/IL6R-L (antibody, human IgG1, name in EU numbering)
heavy: B1 heavy with K328A
light: B1 light
notes: copies: 2 + 2

Each binder was assayed against T4, human FcγRIa (human, UniProt P12314 16-292, limits assumed) (assay: SPR (Biacore), FcγR over captured antibody; binding amount divided by that of IL6R-BF648/IL6R-L x 100).
T4 construct: also called FcgRIa; FcγRI (CD64)
T4 sequence (P12314 16-292 limits assumed): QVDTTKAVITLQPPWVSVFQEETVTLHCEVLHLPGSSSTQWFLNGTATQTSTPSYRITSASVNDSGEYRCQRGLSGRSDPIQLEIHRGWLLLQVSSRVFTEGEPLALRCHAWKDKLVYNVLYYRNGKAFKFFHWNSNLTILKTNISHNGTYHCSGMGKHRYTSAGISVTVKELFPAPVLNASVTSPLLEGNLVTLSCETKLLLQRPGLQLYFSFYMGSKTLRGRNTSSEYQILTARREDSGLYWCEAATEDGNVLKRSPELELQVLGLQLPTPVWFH
Experimental: (§1) According to the following method, relative binding activities were calculated for the results of analyzing interactions with the respective FcγRs.

Binder	relative binding activity
B1	74 relative (IL6R-BF648/IL6R-L = 100)
B2	33 relative (IL6R-BF648/IL6R-L = 100)
B3	19 relative (IL6R-BF648/IL6R-L = 100)
B4	34 relative (IL6R-BF648/IL6R-L = 100)
B5	100 relative (IL6R-BF648/IL6R-L = 100)
B6	108 relative (IL6R-BF648/IL6R-L = 100)
B7	109 relative (IL6R-BF648/IL6R-L = 100)
B8	145 relative (IL6R-BF648/IL6R-L = 100)
B9	51 relative (IL6R-BF648/IL6R-L = 100)
B10	33 relative (IL6R-BF648/IL6R-L = 100)
B11	25 relative (IL6R-BF648/IL6R-L = 100)
B12	72 relative (IL6R-BF648/IL6R-L = 100)
B13	50 relative (IL6R-BF648/IL6R-L = 100)
B14	39 relative (IL6R-BF648/IL6R-L = 100)
B15	102 relative (IL6R-BF648/IL6R-L = 100)
B16	100 relative (IL6R-BF648/IL6R-L = 100)
B17	155 relative (IL6R-BF648/IL6R-L = 100)

Target: T1, human FcγRIIa type R
Test: as above
Experimental: as §1

Binder	relative binding activity
B1	126 relative (IL6R-BF648/IL6R-L = 100)
B2	163 relative (IL6R-BF648/IL6R-L = 100)
B3	279 relative (IL6R-BF648/IL6R-L = 100)
B4	638 relative (IL6R-BF648/IL6R-L = 100)
B5	94 relative (IL6R-BF648/IL6R-L = 100)
B6	362 relative (IL6R-BF648/IL6R-L = 100)
B7	203 relative (IL6R-BF648/IL6R-L = 100)
B8	625 relative (IL6R-BF648/IL6R-L = 100)
B9	653 relative (IL6R-BF648/IL6R-L = 100)
B10	364 relative (IL6R-BF648/IL6R-L = 100)
B11	377 relative (IL6R-BF648/IL6R-L = 100)
B12	155 relative (IL6R-BF648/IL6R-L = 100)
B18	191 relative (IL6R-BF648/IL6R-L = 100)
B13	87 relative (IL6R-BF648/IL6R-L = 100)
B14	705 relative (IL6R-BF648/IL6R-L = 100)
B15	201 relative (IL6R-BF648/IL6R-L = 100)
B16	100 relative (IL6R-BF648/IL6R-L = 100)
B17	288 relative (IL6R-BF648/IL6R-L = 100)

Each binder was assayed against T2, human FcγRIIa type H in the same assay as above.
Experimental: as §1

Binder	relative binding activity
B1	106 relative (IL6R-BF648/IL6R-L = 100)
B2	179 relative (IL6R-BF648/IL6R-L = 100)
B3	158 relative (IL6R-BF648/IL6R-L = 100)
B4	548 relative (IL6R-BF648/IL6R-L = 100)
B5	91 relative (IL6R-BF648/IL6R-L = 100)
B6	150 relative (IL6R-BF648/IL6R-L = 100)
B7	162 relative (IL6R-BF648/IL6R-L = 100)
B8	1600 relative (IL6R-BF648/IL6R-L = 100)
B9	259 relative (IL6R-BF648/IL6R-L = 100)
B10	253 relative (IL6R-BF648/IL6R-L = 100)
B11	166 relative (IL6R-BF648/IL6R-L = 100)
B12	116 relative (IL6R-BF648/IL6R-L = 100)
B18	130 relative (IL6R-BF648/IL6R-L = 100)
B13	91 relative (IL6R-BF648/IL6R-L = 100)
B14	621 relative (IL6R-BF648/IL6R-L = 100)
B15	128 relative (IL6R-BF648/IL6R-L = 100)
B16	100 relative (IL6R-BF648/IL6R-L = 100)
B17	207 relative (IL6R-BF648/IL6R-L = 100)

What follows are binders tested against T3, human FcγRIIb in the same assay as above.
Experimental: as §1

Binder	relative binding activity
B1	136 relative (IL6R-BF648/IL6R-L = 100)
B2	137 relative (IL6R-BF648/IL6R-L = 100)
B3	152 relative (IL6R-BF648/IL6R-L = 100)
B4	178 relative (IL6R-BF648/IL6R-L = 100)
B5	115 relative (IL6R-BF648/IL6R-L = 100)
B7	141 relative (IL6R-BF648/IL6R-L = 100)
B8	58 relative (IL6R-BF648/IL6R-L = 100)
B9	179 relative (IL6R-BF648/IL6R-L = 100)
B11	161 relative (IL6R-BF648/IL6R-L = 100)
B12	137 relative (IL6R-BF648/IL6R-L = 100)
B18	150 relative (IL6R-BF648/IL6R-L = 100)
B13	122 relative (IL6R-BF648/IL6R-L = 100)
B15	147 relative (IL6R-BF648/IL6R-L = 100)
B16	100 relative (IL6R-BF648/IL6R-L = 100)
B17	156 relative (IL6R-BF648/IL6R-L = 100)

Each binder was assayed against T5, human FcγRIIIa type V (human, UniProt P08637 17-208, limits assumed) in the same assay as above.
T5 construct: also called FcgRIIIaV; FcγRIIIa(V)
T5 sequence (P08637 other isoform, or with tags, fused parts or gaps limits assumed): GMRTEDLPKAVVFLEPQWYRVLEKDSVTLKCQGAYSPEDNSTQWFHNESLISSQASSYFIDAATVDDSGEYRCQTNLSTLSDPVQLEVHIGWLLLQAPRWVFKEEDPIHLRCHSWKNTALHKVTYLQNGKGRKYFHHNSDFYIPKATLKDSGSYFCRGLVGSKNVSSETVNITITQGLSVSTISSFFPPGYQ
Experimental: as §1

Binder	relative binding activity
B1	87 relative (IL6R-BF648/IL6R-L = 100)
B2	158 relative (IL6R-BF648/IL6R-L = 100)
B3	104 relative (IL6R-BF648/IL6R-L = 100)
B5	87 relative (IL6R-BF648/IL6R-L = 100)
B6	122 relative (IL6R-BF648/IL6R-L = 100)
B7	106 relative (IL6R-BF648/IL6R-L = 100)
B8	3260 relative (IL6R-BF648/IL6R-L = 100)
B10	118 relative (IL6R-BF648/IL6R-L = 100)
B11	122 relative (IL6R-BF648/IL6R-L = 100)
B12	123 relative (IL6R-BF648/IL6R-L = 100)
B18	120 relative (IL6R-BF648/IL6R-L = 100)
B13	107 relative (IL6R-BF648/IL6R-L = 100)
B14	221 relative (IL6R-BF648/IL6R-L = 100)
B16	100 relative (IL6R-BF648/IL6R-L = 100)
B17	126 relative (IL6R-BF648/IL6R-L = 100)

Reference: US20230257470A1 (published 2023)
